{"source": "patent US6066485A", "about": "“Growth factor inducible serine/threonine phosphatase fin13” (New York University, priority 1997, dated 2000)", "key": {"[1]": {"system": "HeLa cells", "experiment": "BrdU incorporation in transiently transfected HeLa cells", "format": "cell-based, human", "settings": "summary of Table 1", "experimental": "Bromodeoxyuridine (BrdU) incorporation. The effect of FIN13 expression on BrdU incorporation was determined in HeLa cells growing asynchronously in DMEM/10% calf serum. Cells were plated at 10000 cells/ml on coverslips and after 24 h were transfected with 10 μg of either pRKERK2-HA, CMVβ or pRKFIN13. Twenty four hours after transfection the medium was changed and the cells were incubated with BrdU labelling reagent (10 μl) for a further 12 h according to the suppliers instructions (Boehringer Mannheim). Following labelling, coverslips were rinsed in PBS and cells were fixed in 70% ethanol-50 mM glycine (pH 2.0) overnight at -20° C. Incorporated BrdU was detected with FITC-conjugated anti-BrdU (Boehringer Mannheim) by immunocytochemistry (see below).\nImmunocytocliemistry. Fixed cells on coverslips were washed twice in PBS and twice in PBS/0.02% BSA followed by incubation with the primary antibody diluted in PBS/0.02% BSA for 1 hour at 37° C. (anti-FIN13 polyclonal serum at 1:200, anti-HA monoclonal antibody 12CA5 acities at 1:200 or anti-β-galactosidase GAL40 monoclonal antibody at 1:500). After washing, coverslips were incubated in secondary antibody as above (anti-rabbit Texas red at 1:200, anti-mouse Texas red at 1:200)(Molecular Probes). The coverslips were washed again and then incubated in […] (1:500) FITC-conjugated anti-BrdU (Boehringer Mannheim) as above. Where noted, cells were also stained with 1 μg/ml bis-benzimide (Hoechst #33342) in PBS. Coverslips were mounted and examined using a fluorescence microscope.\nCells Transiently Transfected with FIN13 are Blocked in the Cell Cycle. We have utilized a transient transfection approach to examine the effect of FIN13 expression on DNA synthesis and cell cycle progression. […] ERK2 is expressed as a nuclear protein in HeLa cells in the presence of 10% serum (Chen et al., Mol. Cell. Biol. 12:915-927 (1992)) while β-galactosidase is predominantly cytoplasmic. […] BrdU incorporation was detected using FITC-conjugated anti-BrdU antibodies."}, "[2]": {"target": "T1, his-FIN13 (Mus musculus, UniProt Q61074)", "T1 construct": "Purified his-tagged full length FIN13 (his-FIN13); made in house; host or cells: E. coli BL21(DE3)", "T1 sequence (Q61074 151-542 limits assumed)": "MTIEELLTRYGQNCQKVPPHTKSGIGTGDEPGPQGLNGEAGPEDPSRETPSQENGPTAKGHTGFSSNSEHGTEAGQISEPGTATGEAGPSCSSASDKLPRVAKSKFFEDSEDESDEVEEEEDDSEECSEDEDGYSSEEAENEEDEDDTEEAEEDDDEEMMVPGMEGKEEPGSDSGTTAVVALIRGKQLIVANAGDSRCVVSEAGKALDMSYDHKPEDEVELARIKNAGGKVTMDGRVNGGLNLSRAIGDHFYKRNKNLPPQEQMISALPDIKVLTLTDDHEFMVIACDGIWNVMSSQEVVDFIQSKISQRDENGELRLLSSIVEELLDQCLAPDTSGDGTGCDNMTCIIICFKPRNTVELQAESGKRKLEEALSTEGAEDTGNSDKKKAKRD", "experiment": "Phosphatase assay of bacterially expressed his-FIN13 with 32P-labelled casein", "format": "biochemical", "settings": "for effect on his-FIN13 phosphatase activity: 20 μg/ml, 20 mg/ml in FIG. 5 legend", "experimental": "FIG. 5. Phosphatase activity of bacterially expressed FIN13. Purified his-tagged full length FIN13 (his-FIN13) or his-tagged catalytic domain FIN13 (his-FIN13-cat) were examined for their ability to dephosphorylate ^32 P-labelled cascin in vitro as described in the Materials and Methods. Phosphatase assays were performed in the absence of his-FIN13 (No FIN13; open bar) or with his-FIN13 incubated in the presence of 10 mM of the indicated divalent cation (MgCl2, ZnCl2, CaCl2 or MnCl2)(solid bars) or in the presence of the indicated mM concentrations of MnCl2 (half-tone bars). +EDTA: indicates his-FIN13 incubated in the presence of 10 mM EDTA and 10 mM MnCl2. his-FIN13-cat was incubated in the presence of the indicated mM concentrations of MnCl2 (cross-hatched bars). his-FIN13 was also incubated in the presence of 1 μM okadaic acid (OA), 20 mg/ml poly L-lysine (PL-L), 20 mg/ml protamine sulfate (PS). All incubations were performed for 1 h at 30° C.\nPreparation of ^32 P-labelled casein. Casein (10 mg)(Sigma) was labelled with ^32 P using 10U of the catalytic subunit of cAMP dependent protein kinase (Sigma) in 50 mM Tris-HCl pH 7.0, 0.1 mM EGTA, 10 mM Mg-acetate, 0.1% β-mercaptoethanol, and 0.5 mCi of ^32 PγATP for 12 h at 30° C. The reaction mixture was then precipitated at 4° C. in 20% TCA. Labelled casein was recovered by centrifugation, the pellet washed 5 times in 100% acetone and resuspended in 50 mM Tris-HCl, 0.1 mM EGTA.\nPhosphatase assay. The phosphatase activity of purified FIN13 expressed in bacteria as a fusion protein with N- and C-terminal his-tags was assessed in vitro using ^32 P-labelled casein as a substrate. For preparation of his-FIN13 and his-FIN13-cat from bacteria, the BL21(DE3) strain transformed with pEThis-FIN13 or pEThis-FIN13-cat were induced with 0.2 mM IPTG for 2 h following which the cells were recovered by centrifugation, resuspended in column buffer (50 mM sodium phosphate, pH 8.0, 300 mM NaCl, 1 mM PMSF) and frozen overnight at -70° C. The bacteria were then lysed by sonication at 4° C. and the extract cleared by centrifugation. The supernatant was then adsorbed to Ni-NTA-agarose (Qiagen) at 4° C. for 1 h. The resin was then washed extensively in column buffer without PMSF and his-FIN13 or his-FIN13-cat were eluted using 25 mM Tris-HCl pH 7.2, 100 mM NaCl containing […] imidazole (Sigma). In addition, the phosphatase activity of FIN13 expressed in HeLa cells was also determined in an immune complex using ^32 P-labelled casein as a substrate. For preparation of immune complexes of myc-FIN13, HeLa cells were transfected with […] of pRKmyc-FIN13 or pRK5. Cells were lysed 24 h after transfection in lysis buffer (10 mM Na-phosphate pH 7.4, 100 mM NaCl, 1% TRITON X-100, 10 mM EDTA) also containing a protease/phosphatase inhibitor cocktail (1 mM PMSF, 1 μg/ml pepstatin, 1 μg/ml leupeptin, 1 μg/ml aprotinin, 10 mM Na-orthovanadate, 80 mM NaF, 80 mM β-glycerolphosphate, 10 μM okadaic acid). Cleared lysates (100 μg total protein) were immunoprecipitated with anti-myc monoclonal antibody (9E10) adsorbed to 30 μl protein G sepharose (Zymed) or anti-FIN13 antiserum adsorbed to 30 μl protein A sepharose (Zymed) for 1.5 h at 4° C. The anti-FIN13 polyclonal antiserum (630) was generated against the full length his-FIN13 expressed and purified from bacteria. The IPs were then washed 5 times with lysis buffer, once with 10 mM Tris-HCl pH 7.0, 100 mM NaCl and 5 mM MnCl2, and twice with phosphatase reaction buffer (10 mM Tris-HCl pH 7.0, 0.1 mM EGTA, 10 mM DTT and 10 mM MnCl2) containing 1 μM okadaic acid. Purified his-FIN13, his-FIN13-cat or myc-lPs were then examined for phosphatase activity by incubating the indicated FIN13 preparation in the presence of phosphatase reaction buffer containing ^32 P-labelled casein (1×10^5 cpm; approx. 1 μl) at 30° C. for up to 2 h."}}, "data": [{"molecule": "ERK2-HA: control nuclear protein ERK2 expressed in HeLa cells", "values": [{"measurement": "cells expressing the protein observed to incorporate BrdU", "setting": "[1]", "result": "greater than 70%"}]}, {"molecule": "poly L-lysine", "values": [{"measurement": "effect on his-FIN13 phosphatase activity", "setting": "[2]", "result": "Neither poly L-lysine nor protamine sulfate significantly altered"}]}, {"molecule": "protamine sulfate", "values": [{"measurement": "effect on his-FIN13 phosphatase activity", "setting": "[2]", "result": "Neither poly L-lysine nor protamine sulfate significantly altered"}]}, {"molecule": "β-galactosidase: control protein, predominantly cytoplasmic", "values": [{"measurement": "cells expressing the protein observed to incorporate BrdU", "setting": "[1]", "result": "greater than 70%"}]}, {"molecule": "his-FIN13: purified full length FIN13 expressed in bacteria as fusion protein with N- and C-terminal his-tags (protein) MTIEELLTRYGQNCQKVPPHTKSGIGTGDEPGPQGLNGEAGPEDPSRETPSQENGPTAKGHTGFSSNSEHGTEAGQISEPGTATGEAGPSCSSASDKLPRVAKSKFFEDSEDESDEVEEEEDDSEECSEDEDGYSSEEAENEEDEDDTEEAEEDDDEEMMVPGMEGKEEPGSDSGTTAVVALIRGKQLIVANAGDSRCVVSEAGKALDMSYDHKPEDEVELARIKNAGGKVTMDGRVNGGLNLSRAIGDHFYKRNKNLPPQEQMISALPDIKVLTLTDDHEFMVIACDGIWNVMSSQEVVDFIQSKISQRDENGELRLLSSIVEELLDQCLAPDTSGDGTGCDNMTCIIICFKPRNTVELQAESGKRKLEEALSTEGAEDTGNSDKKKAKRD", "values": [{"measurement": "MnCl2 concentration giving maximal phosphatase activity", "setting": "[2]; 32P-labelled casein substrate", "result": 10, "unit": "mM"}, {"measurement": "phosphatase activity with other divalent cations", "setting": "[2]; in the presence of MgCl2, ZnCl2 or CaCl2 (10 mM)", "result": "No activity"}, {"measurement": "dephosphorylation of 32P-labelled casein", "setting": "[2]; in the presence of Mn2+ ions, 30° C.", "result": "able to dephosphorylate"}]}, {"molecule": "FIN13: novel FGF-inducible type 2C serine/threonine phosphatase (protein) MTIEELLTRYGQNCQKVPPHTKSGIGTGDEPGPQGLNGEAGPEDPSRETPSQENGPTAKGHTGFSSNSEHGTEAGQISEPGTATGEAGPSCSSASDKLPRVAKSKFFEDSEDESDEVEEEEDDSEECSEDEDGYSSEEAENEEDEDDTEEAEEDDDEEMMVPGMEGKEEPGSDSGTTAVVALIRGKQLIVANAGDSRCVVSEAGKALDMSYDHKPEDEVELARIKNAGGKVTMDGRVNGGLNLSRAIGDHFYKRNKNLPPQEQMISALPDIKVLTLTDDHEFMVIACDGIWNVMSSQEVVDFIQSKISQRDENGELRLLSSIVEELLDQCLAPDTSGDGTGCDNMTCIIICFKPRNTVELQAESGKRKLEEALSTEGAEDTGNSDKKKAKRD", "values": [{"measurement": "cells expressing the protein observed to incorporate BrdU", "setting": "[1]", "result": "10-17%"}]}, {"molecule": "his-FIN13-cat: catalytic domain of FIN13 (amino acids 195 to 392) with N- and C-terminal poly(6)-histidine tags (protein) DSRCVVSEAGKALDMSYDHKPEDEVELARIKNAGGKVTMDGRVNGGLNLSRAIGDHFYKRNKNLPPQEQMISALPDIKVLTLTDDHEFMVIACDGIWNVMSSQEVVDFIQSKISQRDENGELRLLSSIVEELLDQCLAPDTSGDGTGCDNMTCIIICFKPRNTVELQAESGKRKLEEALSTEGAEDTGNSDKKKAKRD", "values": [{"measurement": "phosphatase activity of catalytic domain", "setting": "[2]; 10 mM MnCl2", "result": "poor phosphatase activity"}, {"measurement": "phosphatase activity of catalytic domain", "setting": "[2]; 400 mM MnCl2", "result": "detectable"}]}]}
